Measured values: article PMC7253548

Target: OsHsfB4d (Oryza sativa (rice; cv. Zhonghua 11?), UniProt Q10KX8 1-305)
Test: EMSA; […], room temperature 20 min, […]; buffer, […]
Settings: protein: recombinant; tags: 6xHis (pET-28a); chain copies: 3

Chain of OsHsfB4d (Q10KX8 whole entry): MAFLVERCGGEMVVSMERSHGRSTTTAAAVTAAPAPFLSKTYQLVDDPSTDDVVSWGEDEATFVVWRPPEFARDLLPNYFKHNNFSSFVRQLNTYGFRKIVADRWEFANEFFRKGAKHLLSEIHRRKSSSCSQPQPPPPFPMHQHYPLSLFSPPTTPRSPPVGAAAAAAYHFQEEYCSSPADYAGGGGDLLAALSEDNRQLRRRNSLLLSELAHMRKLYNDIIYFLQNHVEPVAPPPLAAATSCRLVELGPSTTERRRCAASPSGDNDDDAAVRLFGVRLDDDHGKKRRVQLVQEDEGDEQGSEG

Binder	binding result
18.0-HSE (perfect HSE only) (dsDNA) DNA 1: CTTGGAATAAGCTTCTAGAAACTTCCAGTTTG DNA 2: CAAACTGGAAGTTTCTAGAAGCTTATTCCAAG	binds
18.0-HSE-mutant (Mu) (dsDNA) DNA 1: CTTGGAATAAGCTTCTACAAACAATCAGTTTG DNA 2: CAAACTGATTGTTTGTAGAAGCTTATTCCAAG	no binding
